# In the DeepSol protein solubility set:
# Assay: soluble on expression in E. coli; label from the status in PepcDB or PDB records
row,Sequence,soluble on expression in E. coli
1,MIDNFWRELPRPFFVLAPMEDVTDVVFRHVVSEAGRPDVFFTEFTNSDSYCHPEGMKSVRGRLIFTEDEQPMVAHIWGDNPEYFRQMSIGMAELGFKGIDINMGCPVPNVASRGKGSGLILRPDVAAELIQAAKAGGLPVSVKTRLGFKELSEWEDWLTHIFKQDIANLSIHLRTREEMSQVDAHWELIPEIKKLRDRIAPNTLITINGDILDRKMGLELAEKYGIDGVMIGRGIFKNPFAFEKEPREHSSKEHLDLLRLQLDLQDQYAEVLPRSITGLHRFFKIYVKGFPGAAELRNQLMSTKSTDEVRALLDKFEASVDEAQDSETV,not soluble
2,MSIVLSADHKDALQEFMNISMGRAASKLATLLNLHVTISVPNIRVATEEDMRALQSYAADYYYTRQSFYGGMDGELITLMSRCGCEQVVNDLNHSKGMADGLVSIEESILDISNILSGASLKGLCQQIELKTKIQPPVIFDPTHQPLPILQWRLSLIMEINFLVEKASFSAKTIICFADKELDKVFAHLDELLM,not soluble
3,MSLVLQMKSGGVVSDARTELDTQRLAKYIGGKHALVAQGGGQRGIFTAGVLDAFLLSNFDPYHEFYGTSAGALNLCAFLSRQTGLSKAFILELTTRAEFFHLFSYIRRKQYMNMQWALDRIGEYPYRLDLDMARQALGKRKAYAAVTSADDLKDAYFPMLGADWQQVLLATCAIPGLYPEPVTLAGKQYIDGGVSASIPVQEAWRKEARFITVIRTEFMSKEEETPSPSATELPLWLREPLNHLQHQLQHKWSGWRQEWNEFLQQQKLRAKEQKKEQKHLDALNGGRWLFGADDIYRLSHLLGSKFDAGLADLLMVHYQTYTLTSEFLDAHHDDTFIAQIMPSEPLHSNSLLSSPEALQYDYELGLKAGYRFLKAYSEAETFRKEGHHHHHH,soluble
4,MGSDKIHHHHHHMSSNQIAIKVTNLSKCYQIYSQPWDRLKQFFAPKIKSVIRRESRSYFKEFWALRDVSFSINRGETVGIIGRNGAGKSTLLQMICGTLTPTVGDIEVNGRVAALLELGAGFNPEFSGRDNVYLNGSVLGLSKSEIDKKFQEILDFADIGDFIDQPVKTYSSGMYVRLAFAVQACIDPEILIVDEALAVGDIGFQYKCFKRMEMLKQKGTTIIMVTHSTGSILEYADRCLVMSDGMLVGNTTDVLAAVLAYEKGMLMTERTDTAEKKEAVSQTGEIASADELSAIQNTQTNAEVDEKRFGSGRAIIEDFSIMKADGTPLSEKPLVKPNEEIYFSFKLNSSENINDVVLGVSLSRTQGGDIWGDNNIFAGHKIDLAPGLRKLKYKVKLPINTGDYLVHCGLACFNNGEREELDQRRPIAKVKFWSSRELGGVIHSPVNVIEGDELS,not soluble
5,MSLRSIPSALQAKLDSGATTLARCWIVTRRDGVVMGFTDHDRDLTIGGVLCRAATGFTASEATSRFDLAVDGGEISGAFSDDSLSEADLAAGRYDAAGVATWLVDWSDVSLRIMIARGTIGEVRREGAAFTAELRGLADALAQDSGRLFTARCGVDLGDGKCRVDLASSAFRRSGTVTAVEGTSIVAVSGMSGLAAGWFTAGRLNWTGGANAGLAIEVKQHRVVAGVVRLSLWRAMAEPIAIGDSFVVTAGCDKSFTTCRDRFANTSNFRGFPQIPGNDFVVSYPLPGSPDNGNGSKALEGHHHHHH,soluble
6,MSLYKDDSLTLHTDLYQINMMQVYFNQGIHNKRAVFEVFFRKEPFANGYAVFAGLERMIAYLQGLSFSETDIAYLEELGYPADFVAYLKEFKLELSVKSAKEGDLVFANEPIVQIEGPLAQCQLVETAILNIVNFQTLIATKAARIRSVIEDEPLLEFGTRRAQEMDAAIWGTRAAVIGGANATSNVRAGKLFGIPVSGTHAHALVQAYGNDYDAFMAYAGTHKDCVFLVDTYDTLRLGVPAAIRVASELGDKINFLGVRIDSGDMAYLSKKVRKLLDEAGYPHAKIYASNDLDENTILNLKMQKAKIDIWGVGTKLITAYDQPALGAVYKIVSIEDDNGVMQDTIKLSNNAEKVSTPGKKQVWRITSRAKGKSEGDYITFTDTDVNSLDEIDMFHPTYTYINKKVRDFDAVPLLVDIFDQGKLVYTQPSLSDIQDYARREFDKLWDEYKRVLNPQDYPVDLACDVWQNKVNLIDRIRKEAYEKGDVKEGHHHHHH,soluble
7,VSDVPRDIEVVAVTPTSALISWDAPAVTIRYIRLTYGETGGNSPVQEITLPGSKSTYTISGLKPGTDYTVTLYSVTGRGDSPASSKPASINFRTEI,soluble
